Source: article PMC3779284
Read-outs that look alike come from different tables or passages of the source.

Experiments:
[1] = biological target: Calmodulin fluorescently labelled with Alexa Fluor 488 (UniProt P0DP23); test: AUC
[2] = biological target: Calmodulin fluorescently labelled with Alexa Fluor 488 (UniProt P0DP23); test: AUC; remark: listed apart in the source

With nNOSred R753A (domain or fragment) the Kd [1] was 468 nM and the percent free calmodulin at 1:0.5 CaM:nNOSred [1] was 64.6%.

Work on “nNOSred wt (rat neuronal nitric oxide synthase reductase domain, wild type) (domain or fragment)” yielded a Kd [1] of 167 nM, a percent free calmodulin at 1:0.5 CaM:nNOSred [1] of 30.9% and a percent free calmodulin at 1:0.5 CaM:nNOSred [2] of 40%.
